From paper PMC10336103, “ResR/McdR-regulated protein translation machinery contributes to drug resilience in Mycobacterium tuberculosis” (Communications Biology, 2023)

Legend:
Assay in all cases: EMSA
[1] = system: ResR/McdR (ResR1-225) (Mycobacterium tuberculosis Erdman)
[2] = system: ResR/McdRMS (Mycobacterium smegmatis)
[3] = system: ResR/McdR17-225 (Mycobacterium tuberculosis Erdman)

PwhiB2_FL
Kd [1]: 0.33 µM

PrplN_FL
Kd [2]: 1.4 µM | Kd [3]: 1.17 µM | Kd [1]: 0.78 µM
